Molecular target: FuBc protein (recombinant protein of the fusion loop and Bc loop of domain II of dengue envelope protein with … (DENV-2 (of the template structure PDB …, UniProt P12823)))
Assay: SPR

B1: 3IXY scFv antibody (VH and VL of the anti-fusion loop dengue E53 Fab, PDB 3IXY, joined by a (G4S)3 linker) (scFv, V domains shown)
VH: EVKLVESGGGLVLPGGSLRLSCATSGFTFTDYYMTWVRQPPGKALEWLGFIGNKANDYTTEYSASVKGRFTISRDDSQSILYLQMSTLRAEDRATYYCATVYGNYPYFDVWGAGTTVAVSS
VL: QIVLTQSPAIMSASPGEKVTMTCSASSSVSYMHWYQQKSGTSPKIWIYESSKLASGVPVRFSGSGSGTSYSLTISSMEAEDVATYYCQQWSSHPHPLTFGAGTKLELK
  koff: 0.0077 s⁻¹

Source: paper PMC6328183 (2019)
